Where “and” joins values, the source holds several entries; their conditions need not be identical. Identical values can stand only once. Like-named read-outs stand apart in the source and are kept apart here.
Legend:
[1] = biological target: CD19 (B cell surface protein) on B cells (UniProt P15391); assay: cell-based or functional assay
[2] = biological target: CD19 (B cell surface protein) on B cells (UniProt P15391); assay: cell-based or functional assay; remark: listed apart in the source

UniProt P15391, sequence (P15391 20-556 limits assumed): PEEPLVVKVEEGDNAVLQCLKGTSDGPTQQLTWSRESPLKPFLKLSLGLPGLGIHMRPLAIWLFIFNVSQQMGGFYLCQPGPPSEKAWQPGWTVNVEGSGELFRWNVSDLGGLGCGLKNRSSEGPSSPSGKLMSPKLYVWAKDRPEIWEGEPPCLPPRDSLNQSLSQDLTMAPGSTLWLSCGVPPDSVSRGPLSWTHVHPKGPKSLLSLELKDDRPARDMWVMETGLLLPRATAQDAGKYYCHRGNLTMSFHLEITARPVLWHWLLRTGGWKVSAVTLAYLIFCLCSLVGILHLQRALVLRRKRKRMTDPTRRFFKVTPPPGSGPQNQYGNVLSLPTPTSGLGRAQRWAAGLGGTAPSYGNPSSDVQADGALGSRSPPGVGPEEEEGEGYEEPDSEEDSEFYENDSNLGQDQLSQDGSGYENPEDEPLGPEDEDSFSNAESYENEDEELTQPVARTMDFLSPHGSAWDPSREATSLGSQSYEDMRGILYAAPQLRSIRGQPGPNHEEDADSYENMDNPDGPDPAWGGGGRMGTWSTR

B1: chimeric antigen receptor targeting B cell surface protein (BCAR), CD19 CAR (protein, part only; not given: transmembrane and signaling domains, part only)
chain, part: DIVLTQSPASLAMSLQLGWRPGWFLDSPDRVIGAHLIHWYQQKPGQPPKLLIYLASNLETGVPARFSGSGSGTDFTLTIDPVEEDDVAIYSCLQSRIFPRTFGGGTKLEIKGGGGSGGGGSGGGGSQIQLVQSGPELKKPGETVKISCKASGYTFTDYSINWVKRAPGKGLKWMGWINTETREPAYAYDFRGRFAFSLETSASTAYLQINNLKYEDTATYFCALDYSYAMDYWGQGTSVTVSS
- Expansion of T cells (fold, after 4 days of co-culture with B cells and J82-NY-ESO-1-Luc cells) [1]: 12 fold and 27 fold
- Expansion of T cells (fold, after 96 hours of co-culture with tumor cells and B cells) [1]: 25 fold
- Killing of J82-NY ESO1 tumor cells by BCAR-TCR T (RTCA Cell Index), with against without B cells [1]: 1000 times
- Expansion of T cells (fold, after 96 hours of co-culture with tumor cells and B cells) [2]: 23 fold
